Biological target: T1, sperm FA-1 derived peptide (peptide 1, 35 residue peptide designed from antigen FA-1), biotinylated (biotin at the C-terminus, printed as '(SEQ ID NO: 1) - - - Biotin')
T1 peptide: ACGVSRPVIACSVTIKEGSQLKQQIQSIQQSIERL
Assay: phage ELISA, anti-phage HRP antibody (antibody to PVIII), OD
Method: Infected E. coli TG-1 with panning output phages (as described above) were plated to yield individual colonies. These colonies were picked into 100 μl YTAG media in wells of a flat bottom sterile 96-well plate and grown at 30° C. shaker at 150 RPM ON. 10 μl of phage were transferred into a fresh 96-well plate containing 90 μl of YTAG+2.5 μl /ml (5×10⁸ CFU) of M13KO7 helper phage and grown at 37° C. without shaking for 30 min following shaking at 150 RPM for 30 minutes. Plates were centrifuged at 4000 RPM for 5 minutes at 14° C. and the supernatant was discarded. 200 μl /well of YTAK (with Kanamycin) was added and the plate was left to grow at 30° C. shaker at 150 RPM overnight. The bacteria plate was then centrifuged at 4000 RPM for 5 minutes at 4° C. and 100 μl of the supernatant mixed with 100 μl of PBST was used for the ELISA.
100 μl /well of antigen and control antigen were plated in ELISA plates at 4° C. overnight to coat the plates. The ELISA plates were washed once with washing buffer (300 μl/well of PBST) and blocked with 3% milk/PBS for 1 hr at room temperature (RT). […] The reaction was then stopped with […] of 1 M HCL solution plates were read plates at […]. Detection was achieved using a horseradish peroxidase (HRP)-tagged anti-phage antibody and the color resulting from the substrate-enzyme reaction was read with an automated ELISA reader.

B1: scFv J102 (scFv)
scFv: MAEVQLLESGGGLVQPGGSLRLSCAASGFTFSDHDMHWVRQAPGKGLEWVSGISWKSDSMAYRDSVKGRFTISRDNSKNTLYLQMNSLRAEDTAVYYCARDQEHFDFDYWGQGTLVTVSSGSAGGGGSGGGGSGGGGSDIVLTQPPSASGTPGQRVTISCSGSSSNLGSNTVNWYQQLPGKAPKLLIYDNNQRPSGVPDRFSGSKSGTSASLAISGLRSEDEADYYCAAWDDSLSGLVFGTGTKLTVL
notes: Human-derived scFv from a phage display library; also called Clone J102
Does B1 bind?
Result: binds

Source: patent publication US20130045184A1 (published 2013)
